The source of these data is PMC10786891, “Massively parallel profiling of RNA-targeting CRISPR-Cas13d”.

Sequences and labels used below:
T1: EsCas13d, nuclease-dead (Eubacterium siraeum, UniProt B0MS50, R295A;H300A;R849A;H854A)
T1 sequence: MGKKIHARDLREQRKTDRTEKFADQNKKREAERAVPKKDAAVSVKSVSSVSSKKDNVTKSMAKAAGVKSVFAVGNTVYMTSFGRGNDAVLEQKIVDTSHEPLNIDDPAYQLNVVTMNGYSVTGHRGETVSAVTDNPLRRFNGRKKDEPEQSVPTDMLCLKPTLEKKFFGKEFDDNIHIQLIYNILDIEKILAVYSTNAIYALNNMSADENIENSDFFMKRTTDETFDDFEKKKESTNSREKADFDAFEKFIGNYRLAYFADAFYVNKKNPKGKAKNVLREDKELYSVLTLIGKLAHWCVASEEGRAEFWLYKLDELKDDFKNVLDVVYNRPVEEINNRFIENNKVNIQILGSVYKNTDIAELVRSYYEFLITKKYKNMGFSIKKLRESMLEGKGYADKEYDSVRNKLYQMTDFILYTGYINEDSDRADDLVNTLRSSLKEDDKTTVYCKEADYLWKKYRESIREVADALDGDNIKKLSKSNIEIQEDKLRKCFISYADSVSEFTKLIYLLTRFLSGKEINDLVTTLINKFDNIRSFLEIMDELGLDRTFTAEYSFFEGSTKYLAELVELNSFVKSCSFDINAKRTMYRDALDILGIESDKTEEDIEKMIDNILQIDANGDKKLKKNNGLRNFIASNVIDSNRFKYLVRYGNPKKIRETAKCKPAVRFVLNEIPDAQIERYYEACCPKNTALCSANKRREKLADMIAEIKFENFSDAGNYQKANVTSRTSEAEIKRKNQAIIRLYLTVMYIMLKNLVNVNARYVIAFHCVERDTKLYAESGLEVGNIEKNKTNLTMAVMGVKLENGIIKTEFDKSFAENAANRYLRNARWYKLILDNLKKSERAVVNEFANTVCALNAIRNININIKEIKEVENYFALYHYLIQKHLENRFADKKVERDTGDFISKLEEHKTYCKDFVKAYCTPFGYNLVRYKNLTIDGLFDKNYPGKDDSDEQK

B1: target 1 G5U,C6U (mixed)
RNA 1: CACCCGUGCAAAAAUGCAGGGGUCUAAAACUGAGCGGAUAACCUCUCUAUGG
RNA 2: GGGAAUGGAUCCACAUCUACGAAUUCGUACCAUAGAGAGGUUAUCUUCUCACCGAGAUCGGAAGAGCACACGU
B2: target 1 insC 3' of 17,insU 3' of 9 (mixed)
RNA 1: CACCCGUGCAAAAAUGCAGGGGUCUAAAACUGAGCGGAUAACCUCUCUAUGG
RNA 2: GGGAAUGGAUCCACAUCUACGAAUUCGUACCAUAGCAGAGGUUAUUCCGCUCACCGAGAUCGGAAGAGCACACGU
B3: target 1 insU 3' of 7,insA 3' of 2 (mixed)
RNA 1: CACCCGUGCAAAAAUGCAGGGGUCUAAAACUGAGCGGAUAACCUCUCUAUGG
RNA 2: GGGAAUGGAUCCACAUCUACGAAUUCGUACCAUAGAGAGGUUAUCUCGCUCAACCGAGAUCGGAAGAGCACACGU
B4: target 1 C2G,U19C (mixed)
RNA 1: CACCCGUGCAAAAAUGCAGGGGUCUAAAACUGAGCGGAUAACCUCUCUAUGG
RNA 2: GGGAAUGGAUCCACAUCUACGAAUUCGUACCACAGAGAGGUUAUCCGCUGACCGAGAUCGGAAGAGCACACGU
B5: target 1 insC 3' of 17,insG 3' of 4 (mixed)
RNA 1: CACCCGUGCAAAAAUGCAGGGGUCUAAAACUGAGCGGAUAACCUCUCUAUGG
RNA 2: GGGAAUGGAUCCACAUCUACGAAUUCGUACCAUAGCAGAGGUUAUCCGCGUCACCGAGAUCGGAAGAGCACACGU
B6: target 1 G15A,U19C (mixed)
RNA 1: CACCCGUGCAAAAAUGCAGGGGUCUAAAACUGAGCGGAUAACCUCUCUAUGG
RNA 2: GGGAAUGGAUCCACAUCUACGAAUUCGUACCACAGAAAGGUUAUCCGCUCACCGAGAUCGGAAGAGCACACGU
B7: target 1 insA 3' of 21,insU 3' of 9 (mixed)
RNA 1: CACCCGUGCAAAAAUGCAGGGGUCUAAAACUGAGCGGAUAACCUCUCUAUGG
RNA 2: GGGAAUGGAUCCACAUCUACGAAUUCGUACCAAUAGAGAGGUUAUUCCGCUCACCGAGAUCGGAAGAGCACACGU
B8: target 1 insC 3' of 13,insC 3' of 8 (mixed)
RNA 1: CACCCGUGCAAAAAUGCAGGGGUCUAAAACUGAGCGGAUAACCUCUCUAUGG
RNA 2: GGGAAUGGAUCCACAUCUACGAAUUCGUACCAUAGAGAGCGUUAUCCCGCUCACCGAGAUCGGAAGAGCACACGU
B9: target 1 insC 3' of 12,insG 3' of 10 (mixed)
RNA 1: CACCCGUGCAAAAAUGCAGGGGUCUAAAACUGAGCGGAUAACCUCUCUAUGG
RNA 2: GGGAAUGGAUCCACAUCUACGAAUUCGUACCAUAGAGAGGCUUGAUCCGCUCACCGAGAUCGGAAGAGCACACGU
B10: target 1 insA 3' of 8,insU 3' of 4 (mixed)
RNA 1: CACCCGUGCAAAAAUGCAGGGGUCUAAAACUGAGCGGAUAACCUCUCUAUGG
RNA 2: GGGAAUGGAUCCACAUCUACGAAUUCGUACCAUAGAGAGGUUAUACCGCUUCACCGAGAUCGGAAGAGCACACGU
B11: target 1 insC 3' of 22,insC 3' of 15 (mixed)
RNA 1: CACCCGUGCAAAAAUGCAGGGGUCUAAAACUGAGCGGAUAACCUCUCUAUGG
RNA 2: GGGAAUGGAUCCACAUCUACGAAUUCGUACCCAUAGAGCAGGUUAUCCGCUCACCGAGAUCGGAAGAGCACACGU
B12: target 1 insC 3' of 11 (mixed)
RNA 1: CACCCGUGCAAAAAUGCAGGGGUCUAAAACUGAGCGGAUAACCUCUCUAUGG
RNA 2: GGGAAUGGAUCCACAUCUACGAAUUCGUACCAUAGAGAGGUCUAUCCGCUCACCGAGAUCGGAAGAGCACACGU
B13: target 1 insG 3' of 16,insA 3' of 4 (mixed)
RNA 1: CACCCGUGCAAAAAUGCAGGGGUCUAAAACUGAGCGGAUAACCUCUCUAUGG
RNA 2: GGGAAUGGAUCCACAUCUACGAAUUCGUACCAUAGAGGAGGUUAUCCGCAUCACCGAGAUCGGAAGAGCACACGU
B14: target 1 insG 3' of 21,insU 3' of 20 (mixed)
RNA 1: CACCCGUGCAAAAAUGCAGGGGUCUAAAACUGAGCGGAUAACCUCUCUAUGG
RNA 2: GGGAAUGGAUCCACAUCUACGAAUUCGUACCGAUUAGAGAGGUUAUCCGCUCACCGAGAUCGGAAGAGCACACGU
B15: target 1 insG 3' of 16,insC 3' of 14 (mixed)
RNA 1: CACCCGUGCAAAAAUGCAGGGGUCUAAAACUGAGCGGAUAACCUCUCUAUGG
RNA 2: GGGAAUGGAUCCACAUCUACGAAUUCGUACCAUAGAGGACGGUUAUCCGCUCACCGAGAUCGGAAGAGCACACGU
B16: target 1 insC 3' of 13 (mixed)
RNA 1: CACCCGUGCAAAAAUGCAGGGGUCUAAAACUGAGCGGAUAACCUCUCUAUGG
RNA 2: GGGAAUGGAUCCACAUCUACGAAUUCGUACCAUAGAGAGCGUUAUCCGCUCACCGAGAUCGGAAGAGCACACGU
B17: target 1 U11C,G13U (mixed)
RNA 1: CACCCGUGCAAAAAUGCAGGGGUCUAAAACUGAGCGGAUAACCUCUCUAUGG
RNA 2: GGGAAUGGAUCCACAUCUACGAAUUCGUACCAUAGAGAUGCUAUCCGCUCACCGAGAUCGGAAGAGCACACGU
B18: target 1 insA 3' of 22,insA 3' of 22 (mixed)
RNA 1: CACCCGUGCAAAAAUGCAGGGGUCUAAAACUGAGCGGAUAACCUCUCUAUGG
RNA 2: GGGAAUGGAUCCACAUCUACGAAUUCGUACAACAUAGAGAGGUUAUCCGCUCACCGAGAUCGGAAGAGCACACGU
B19: target 1 insU 3' of 18,insA 3' of 17 (mixed)
RNA 1: CACCCGUGCAAAAAUGCAGGGGUCUAAAACUGAGCGGAUAACCUCUCUAUGG
RNA 2: GGGAAUGGAUCCACAUCUACGAAUUCGUACCAUAUGAAGAGGUUAUCCGCUCACCGAGAUCGGAAGAGCACACGU
B20: target 1 insA 3' of 19,insC 3' of 19 (mixed)
RNA 1: CACCCGUGCAAAAAUGCAGGGGUCUAAAACUGAGCGGAUAACCUCUCUAUGG
RNA 2: GGGAAUGGAUCCACAUCUACGAAUUCGUACCAUACAGAGAGGUUAUCCGCUCACCGAGAUCGGAAGAGCACACGU
B21: target 1 insG 3' of 16,insG 3' of 11 (mixed)
RNA 1: CACCCGUGCAAAAAUGCAGGGGUCUAAAACUGAGCGGAUAACCUCUCUAUGG
RNA 2: GGGAAUGGAUCCACAUCUACGAAUUCGUACCAUAGAGGAGGUGUAUCCGCUCACCGAGAUCGGAAGAGCACACGU
B22: target 1 insG 3' of 18,insG 3' of 14 (mixed)
RNA 1: CACCCGUGCAAAAAUGCAGGGGUCUAAAACUGAGCGGAUAACCUCUCUAUGG
RNA 2: GGGAAUGGAUCCACAUCUACGAAUUCGUACCAUAGGAGAGGGUUAUCCGCUCACCGAGAUCGGAAGAGCACACGU
B23: target 1 insC 3' of 20,insG 3' of 4 (mixed)
RNA 1: CACCCGUGCAAAAAUGCAGGGGUCUAAAACUGAGCGGAUAACCUCUCUAUGG
RNA 2: GGGAAUGGAUCCACAUCUACGAAUUCGUACCACUAGAGAGGUUAUCCGCGUCACCGAGAUCGGAAGAGCACACGU
B24: target 1 insC 3' of 13,insA 3' of 3 (mixed)
RNA 1: CACCCGUGCAAAAAUGCAGGGGUCUAAAACUGAGCGGAUAACCUCUCUAUGG
RNA 2: GGGAAUGGAUCCACAUCUACGAAUUCGUACCAUAGAGAGCGUUAUCCGCUACACCGAGAUCGGAAGAGCACACGU
B25: target 1 insG 3' of 4,insG 3' of 3 (mixed)
RNA 1: CACCCGUGCAAAAAUGCAGGGGUCUAAAACUGAGCGGAUAACCUCUCUAUGG
RNA 2: GGGAAUGGAUCCACAUCUACGAAUUCGUACCAUAGAGAGGUUAUCCGCGUGCACCGAGAUCGGAAGAGCACACGU
B26: target 1 insC 3' of 18,insU 3' of 2 (mixed)
RNA 1: CACCCGUGCAAAAAUGCAGGGGUCUAAAACUGAGCGGAUAACCUCUCUAUGG
RNA 2: GGGAAUGGAUCCACAUCUACGAAUUCGUACCAUACGAGAGGUUAUCCGCUCUACCGAGAUCGGAAGAGCACACGU
B27: target 1 insA 3' of 10,insC 3' of 5 (mixed)
RNA 1: CACCCGUGCAAAAAUGCAGGGGUCUAAAACUGAGCGGAUAACCUCUCUAUGG
RNA 2: GGGAAUGGAUCCACAUCUACGAAUUCGUACCAUAGAGAGGUUAAUCCGCCUCACCGAGAUCGGAAGAGCACACGU

In this series the target is T1, EsCas13d, nuclease-dead. In words: crRNA (strand 1, pre-loaded); Mg2+; 40 mM Tris-HCl pH 7.5, 150 mM NaCl, 6 mM MgCl2, 1 mM DTT, 0.1% Tween-20, 0.2 mg/ml BSA; 25 C; 10 min per concentration, then washed. The settings on record: tags: His6-TwinStrep-SUMO cleaved; N-terminal SNAP kept (SNAP-Surface 488); label: 3' end held by stalled T7 RNA polymerase.
In the case of B1, binding was characterised by a dissociation constant (Kd) of 48 ± 4 nM.

The molecule B2 gave a dissociation constant Kd of 39 ± 7 nM.

As to B3, binding was characterised by a dissociation constant (Kd) of 18.7 ± 1.5 nM. The molecule B4 had a Kd of 18.5 ± 1 nM. Next, B5: 30.9 ± 2.4 nM. Next, B6: 61 ± 20 nM. With B7 the figure was 24.4 ± 2.1 nM. As to B8, the dissociation constant Kd was 13.1 ± 0.4 nM. For the molecule B9, the Kd was 12.3 ± 0.5 nM. Next, B10: 12.3 ± 0.7 nM; B11: 40 ± 7 nM; B12: 29.8 ± 3.1 nM. As for B13, binding was characterised by a dissociation constant (Kd) of 10.5 ± 0.5 nM. With B14 the figure was 58 ± 9 nM. Take B15: the dissociation constant Kd turned out to be 38 ± 5 nM.

As for B16, the dissociation constant Kd was 9.1 ± 0.4 nM.

With B17, the Kd is 60 ± 10 nM. Turning to B18, the Kd came to 9.9 ± 0.6 nM. With B19 the figure was 54 ± 7 nM. Next, B20: 21.5 ± 1.8 nM. Next, B21: 50 ± 5 nM. As for B22, the Kd was determined as 63 ± 5 nM. The molecule B23 displayed a Kd of 11.4 ± 0.9 nM. Next, B24: 6.88 ± 0.2 nM; B25: 8.2 ± 0.35 nM; B26: 38 ± 7 nM. With B27 the figure was 10.1 ± 0.5 nM.
